Target: Cas7c (D. vulgaris)
Experiment: cryo-EM structure

For Cas7c (natural protein), the stoichiometry N was 7.

From publication doi:10.1101/2022.06.15.496202
